This assay concerns the target T1, recombinant, fluorescently labeled CD19 (Homo sapiens, UniProt P15391, fluorescent label (dye and site not stated)).
T1 construct: CD19, B-lymphocyte antigen; In the functional rows this molecule stands for CD19 on JeKo-1 WT cells
Briefly: flow cytometry on cells; recombinant, fluorescently labeled CD19 on CAR-transduced T cells, compared to nontransduced T cells; methods in the Supporting Information. The following applies: one partner purified. Background: A flow cytometer gives signals particle by particle.

T1 sequence (P15391 21-277): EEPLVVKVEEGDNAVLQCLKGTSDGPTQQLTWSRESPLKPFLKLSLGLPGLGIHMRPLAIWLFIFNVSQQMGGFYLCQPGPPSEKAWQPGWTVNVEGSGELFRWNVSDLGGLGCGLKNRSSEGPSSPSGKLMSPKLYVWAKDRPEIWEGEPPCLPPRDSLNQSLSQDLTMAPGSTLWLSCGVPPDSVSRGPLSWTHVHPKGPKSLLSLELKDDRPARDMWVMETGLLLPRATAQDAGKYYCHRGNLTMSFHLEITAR

B1: G228C CD19-CysCAR (anti-CD19 CAR with the scFv FMC63, CD19-41BB-CAR format, G228C) (scFv, V domains shown)
VH: EVKLQESGPGLVAPSQSLSVTCTVSGVSLPDYGVSWIRQPPRKGLEWLGVIWGSETTYYNSALKSRLTIIKDNSKSQVFLKMNSLQTDDTAIYYCAKHYYYGCSYAMDYWGQGTSVTVSS
VL: DIQMTQTTSSLSASLGDRVTISCRASQDISKYLNWYQQKPDGTVKLLIYHTSRLHSGVPSRFSGSGSGTDYSLTISNLEQEDIATYFCQQGNTLPYTFGGGTKLEIT
notes: scFv FMC63 (light chain domain, linker, heavy chain domain); CD8-derived hinge and transmembrane domains (Kymriah format); 4-1BB costimulatory domain (Kymriah format); Chimeric antigen receptor on T cells; source: primary human T cells, lentiviral transduction, on cells
Take B1: the binding result is “binds”.

The record behind these values is article PMC12550615, “Bifunctional Cysteine-Engineered CAR‑T Cells Enable Thiol-Mediated Targeting to Overcome Antigen Escape in B Cell Lymphoma” (ACS Central Science, 2025).
